Assay results: article PMC7951984
Ends that are not written are not given here.

Molecular target: Plutella xylostella tachykinin receptor (PxTKR) (Plutella xylostella)

EC50 of the cAMP response (cAMP-Glo assay) of HEK293 cells stably expressing PxTKR, peptide from 10 pM to 100 μM	Molecule
87.7 nM	Plutella xylostella tachykinin peptide 3 (PxTK3)
32 nM	APSGFLGMR (ends and bridges not checked) [Plutella xylostella tachykinin peptide 1 (PxTK1)]
